From patent US20150218538A1 (UNIVERSITY OF NORTH CAROLINA AT CHAPEL HILL, published 2015)
Ends that are not written are not given here.

Columns and labels:
[1] = target: T1, Gαq activated with aluminum fluoride (Gαq-GDP plus aluminum fluoride) (UniProt P50148 35-359); experiment: cell-based or functional assay
T1 sequence (looked up): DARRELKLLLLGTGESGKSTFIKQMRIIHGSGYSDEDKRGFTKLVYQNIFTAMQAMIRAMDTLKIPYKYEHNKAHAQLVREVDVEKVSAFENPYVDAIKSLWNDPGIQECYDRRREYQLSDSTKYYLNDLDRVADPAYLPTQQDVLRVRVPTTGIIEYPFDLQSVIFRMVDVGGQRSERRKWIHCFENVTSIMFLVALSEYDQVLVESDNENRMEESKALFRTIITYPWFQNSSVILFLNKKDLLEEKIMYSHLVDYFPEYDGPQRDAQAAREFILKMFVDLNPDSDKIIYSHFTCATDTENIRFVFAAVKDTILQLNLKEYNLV

[2] = target: chimeric form of Gαq (Gαq/i), activated with aluminum fluoride; experiment: fluorescence polarization in 384-well plates; 30 µM unlabeled 27-mer, 200 nM TAMRA-27-mer, 1.5 µM Gαq/i with aluminum fluoride; competitor: TAMRA-27-mer
[3] = target: T1, Gαq activated with aluminum fluoride …; experiment: fluorescence polarization; Gαq activated with aluminum fluoride titrated into TAMRA-labeled peptide
From the text: (§1) Quantification of Gαq binding to peptides corresponding to the HTH of PLβ3. […] KD and IC₅₀ values were derived from three independent experiments.

[4] = target: T1, Gαq activated with aluminum fluoride …; experiment: fluorescence polarization competition; unlabeled PLC-β3 added to labeled 25-mer (400 nM) and Gαq (4 µM); competitor: TAMRA-25-mer
From the text: as §1

**Q.** How did the phospholipase activity of PLC-β3 activated by Gαq in lipid vesicles (IC50) [1] turn out when “peptide corresponding to the HTH of PLC-β3 and containing an I860A substitution (from UniProt Q01970 852-878)” was run?
**A.** Its phospholipase activity of PLC-β3 activated by Gαq in lipid vesicles (IC50) is 100 nM.

**Q.** With “unlabeled 27-mer (from UniProt Q01970 852-878) (peptide)” as the molecule, how does the percent decrease in fluorescence polarization [2] read?
**A.** Its percent decrease in fluorescence polarization is 50 percent.

B1: TAMRA-25-mer (25-residue peptide spanning the entire helix-turn-helix of PLC-β3, labeled with TAMRA) (peptide)
peptide: HQDYAEALINPIKHVSLMDQRARQL
modifications: also: TAMRA label, position not given here
notes: also called labeled 25-mer; 25 residue peptide of PLC-β3
**Q.** Which “phospholipase activity of PLC-beta3 activated by G-alpha-q in lipid vesicles, as a function of TAMRA-25-mer concentration (IC50)” value [1] does the source give for B1 here?
**A.** The value was roughly 1 microMolar.

**Q.** And the Kd [3]?
**A.** Its Kd is roughly 6000 nM.

B2: full-length PLC-β3 (wild type) (enzyme, UniProt Q01970 2-1234, looked up)
chain: AGAQPGVHALQLEPPTVVETLRRGSKFIKWDEETSSRNLVTLRVDPNGFFLYWTGPNMEVDTLDISSIRDTRTGRYARLPKDPKIREVLGFGGPDARLEEKLMTVVSGPDPVNTVFLNFMAVQDDTAKVWSEELFKLAMNILAQNASRNTFLRKAYTKLKLQVNQDGRIPVKNILKMFSADKKRVETALESCGLKFNRSESIRPDEFSLEIFERFLNKLCLRPDIDKILLEIGAKGKPYLTLEQLMDFINQKQRDPRLNEVLYPPLRPSQARLLIEKYEPNQQFLERDQMSMEGFSRYLGGEENGILPLEALDLSTDMTQPLSAYFINSSHNTYLTAGQLAGTSSVEMYRQALLWGCRCVELDVWKGRPPEEEPFITHGFTMTTEVPLRDVLEAIAETAFKTSPYPVILSFENHVDSAKQQAKMAEYCRSIFGDALLIEPLDKYPLAPGVPLPSPQDLMGRILVKNKKRHRPSAGGPDSAGRKRPLEQSNSALSESSAATEPSSPQLGSPSSDSCPGLSNGEEVGLEKPSLEPQKSLGDEGLNRGPYVLGPADREDEEEDEEEEEQTDPKKPTTDEGTASSEVNATEEMSTLVNYIEPVKFKSFEAARKRNKCFEMSSFVETKAMEQLTKSPMEFVEYNKQQLSRIYPKGTRVDSSNYMPQLFWNVGCQLVALNFQTLDVAMQLNAGVFEYNGRSGYLLKPEFMRRPDKSFDPFTEVIVDGIVANALRVKVISGQFLSDRKVGIYVEVDMFGLPVDTRRKYRTRTSQGNSFNPVWDEEPFDFPKVVLPTLASLRIAAFEEGGKFVGHRILPVSAIRSGYHYVCLRNEANQPLCLPALLIYTEASDYIPDDHQDYAEALINPIKHVSLMDQRARQLAALIGESEAQAGQETCQDTQSQQLGSQPSSNPTPSPLDASPRRPPGPTTSPASTSLSSPGQRDDLIASILSEVAPTPLDELRGHKALVKLRSRQERDLRELRKKHQRKAVTLTRRLLDGLAQAQAEGRCRLRPGALGGAADVEDTKEGEDEAKRYQEFQNRQVQSLLELREAQVDAEAQRRLEHLRQALQRLREVVLDANTTQFKRLKEMNEREKKELQKILDRKRHNSISEAKMRDKHKKEAELTEINRRHITESVNSIRRLEEAQKQRHDRLVAGQQQVLQQLAEEEPKLLAQLAQECQEQRARLPQEIRRSLLGEMPEGLGDGPLVACASNGHAPGSSGHLSGADSESQEENTQL
notes: mature; also called PLC-beta3; unlabeled PLC-β3
**Q.** With B2 as the molecule, how does the IC50 [4] read?
**A.** Its IC50 is roughly 1000 nM.
